Results taken from patent US20210009673A1, “METHODS FOR REGULATING BREAST CANCERS” (priority 2018, published 2021).

Experiments:
Assay type in all cases: cell-based, human
[1] = test system: EGFR; assay: tyrosine phosphorylation of EGFR in HUVS cells
Protocol: FIG. 10: FIG. 10 illustrates: (A), HUVS cells were stimulated with PTN for 2, 5, and 15 minutes. Cell lysates were used to immunoprecipitate EGFR and the immunoprecipitates were analyzed in Western blots probed with anti-phosphotyrosine antibodies. In (B), Lysates from PTN-stimulated HUVS cells that express EGFR were incubated with GST-RPTPβ/ζ D1, GST-RPTPβ/ζ D1 (C1932S), and GST-RPTPβ/ζ D1 (D1900A), a “substrate trap” mutant, which captures the substrate phosphoryl-intermediate in the active site of RPTPβ/ζ with high affinity and specificity. The proteins captured were analyzed in Western blots probed with anti-EGFR antibodies and separately with anti-GST antibodies. In (C), HUVS cells were co-transfected with a full-length EGFR and the vector pC4-Fv1E encoding the Fv domain of FKBP12 needed for enforced dimerization induced by AP20187 (Clackson, Yang et al. 1998) in frame with the intracellular domain of RPTPβ/ζ. AP20187 (2 μM) enforced homodimerization of RPTPβ/ζ and stimulated increase in tyrosine phosphorylation of EGFR 2′, 5′, 10′, and 20′ after stimulation compared with control cells transfected with EGFR alone. (D) A retroviral vector (pSM2) encoding shRNA to “knock down” RPTPβ/ζ was tested in HUVS cells that express endogenous RPTPβ/ζ and EGFR. The cells were stimulated with PTN and cell lysates were used to prepare immunoprecipitates with anti-EGFR antibodies and the immunoprecipitates analyzed in Western blots probed with anti-phosphotyrosine antibodies.
Cell lysates prepared in a lysis buffer containing 50 mM Tris, 150 mM NaCl pH 7.5, 1% NP40, 0.25% sodium deoxycholate, 0.1% SDS, Complete EDTA-free Protease Inhibitor Cocktail (Roche, Indianapolis, Ind.), and 2 mM sodium orthovanadate were pre-cleared by incubation with 2 μg antibodies followed by one hour incubation with protein G-agarose beads. The beads were washed 4 times in the same lysis buffer, eluted in loading buffer containing 240 mM Tris pH 6.8, 40% glycerol, 20% SDS, 2.5% β-mercaptoethanol and 0.01% bromophenol blue and analyzed in Western blots probed with different antibodies as individually described.
PI3K also is activated by an activated Epidermal Growth Factor Receptor (EGFR). We therefore investigated the possibility EGFR is implicated in the translocation of β-catenin to nucleus in PTN-stimulated cells. HUVS were stimulated with PTN for 2, 5, and 15 minutes. Lysates from these cells were immunoprecipitated with anti-EGFR antibodies and the immunoprecipitates were analyzed in Western blots probed with anti-phosphotyrosine antibodies. Tyrosine phosphorylation of EGFR was increased about 5.8-fold at two minutes after HUVS cells were stimulated with PTN, about 11-fold at 5 minutes, and about 5-fold 15 minutes after stimulation with PTN (FIG. 10A).
To establish whether phosphorylation of EGFR is dependent on enforced dimerization of RPTPβ/ζ, which is the consequence of the interaction of PTN with RPTPβ/ζ, HUVS cells were then co-transfected with a full-length EGFR and the vector pC4-Fv1 E. The vector pC4-Fv1 E encodes the Fv domain of FKBP12 in frame with the intracellular domain of RPTPβ/ζ; it effectively enforces dimerization of RPTPβ/ζ when cells are stimulated with AP20187. AP20187 (2 μM) was added to HUVS cells that expressed full-length EGFR and pC4-Fv1 E as above. […]

[2] = test system: β-catenin; assay: β-catenin import into nuclei of HUVS cells (Western blot of nuclear extracts)
Protocol: FIG. 13: FIG. 13 illustrates: (A) human umbilical vein stromal cells not stimulated or stimulated for 60 minutes with 1, 10, 25, 50, 100 and 200 ng/ml of PTN were used to isolate their nuclei and prepare lysates that were analyzed in Western blots probed with anti-β-catenin antibodies (upper panel) and anti-Orc-2 antibodies (lower panel). In (B), human umbilical vein stromal cells not stimulated or stimulated with 100 ng/ml of PTN for 5, 15, 30, 60 minutes were used to isolate their nuclei and prepare lysates that were analyzed in Western blots probed with anti-β-catenin antibodies (upper panel) and anti-Orc-2 antibodies (lower panel).
Cells at confluence were washed with PBS ×2 and incubated for 10 minutes in a lysis buffer containing 100 mM HEPES pH 7.9, 100 mM KCl, […], 1 mM DTT, Complete EDTA-free Protease Inhibitor Cocktail (Roche, Indianapolis, Ind.) and 0.04% IGEPAL (Sigma-Aldrich Co. Ltd, Poole, Dorset, UK). […] Samples were centrifuged and the supernatant nuclear extract was collected and analyzed in Western-blots as described below. […] It was detected with anti-Orc2 antibodies; tubulin was used to mark cytosolic fractions and detected with anti-tubulin antibodies. Samples of the nuclear fractions were used only if tubulin was not detected. […]

[3] = test system: Src; assay: phospho-Src tyrosine 416 Western blot in PTN-stimulated U87MG cells; details: 50 ng PTN/ml for 5, 10, 15 minutes

B1: pleiotrophin (protein, UniProt P21246 33-168, looked up)
Pleiotrophin: GKKEKPEKKVKKSDCGEWQWSVCVPTSGDCGLGTREGTRTGAECKQTMKTQRCKIPCNWKKQFGAECKYQFQAWGECDLNTALKTRTGSLKRALHNAECQKTVTISKPCGKLTKPKPQAESKKKKKEGKKQEKMLD
**Q.** With B1 as the molecule, how does the “increase in tyrosine phosphorylation of EGFR” value (from here on “increase … of EGFR”) ([1]; 5 minutes after PTN) read?
**A.** The value was “about 11 fold”.

**Q.** What about the “increase … of EGFR” value ([1]; 15 minutes after PTN) of the same molecule?
**A.** The value was “about 5 fold”.

**Q.** What about the “tyrosine phosphorylation of EGFR” value ([1]; RPTPβ/ζ knocked down with shRNA) of the same molecule?
**A.** The value was “failed to stimulate”.

**Q.** And the “increase … of EGFR” value ([1]; cells transfected with pSM2 control vector)?
**A.** The value was ~5 fold.

**Q.** And the “increase … of EGFR” value ([1]; two minutes after PTN)?
**A.** Its value is “about 5.8 fold”.

**Q.** And the β-catenin in nuclei ([2]; 1-200 ng/ml PTN, 5-60 minutes)?
**A.** The β-catenin in nuclei was “concentration and time-dependent increase”.

**Q.** And the “PTN concentration at which increase in nuclear β-catenin was seen” value ([2]; 60 minutes)?
**A.** The value was 10 ng/mL.

**Q.** And the “tyrosine phosphorylation of Src tyrosine 416” value [3]?
**A.** The value was “not increased”.
